Target: integrin α5β1 on cells (human (endogenous in K562 and MCF10A), UniProt P08648;P05556)
Test: flow cytometry on cells

Sequence of integrin α5β1 on cells (P08648 42-1049, chain 1 of 2): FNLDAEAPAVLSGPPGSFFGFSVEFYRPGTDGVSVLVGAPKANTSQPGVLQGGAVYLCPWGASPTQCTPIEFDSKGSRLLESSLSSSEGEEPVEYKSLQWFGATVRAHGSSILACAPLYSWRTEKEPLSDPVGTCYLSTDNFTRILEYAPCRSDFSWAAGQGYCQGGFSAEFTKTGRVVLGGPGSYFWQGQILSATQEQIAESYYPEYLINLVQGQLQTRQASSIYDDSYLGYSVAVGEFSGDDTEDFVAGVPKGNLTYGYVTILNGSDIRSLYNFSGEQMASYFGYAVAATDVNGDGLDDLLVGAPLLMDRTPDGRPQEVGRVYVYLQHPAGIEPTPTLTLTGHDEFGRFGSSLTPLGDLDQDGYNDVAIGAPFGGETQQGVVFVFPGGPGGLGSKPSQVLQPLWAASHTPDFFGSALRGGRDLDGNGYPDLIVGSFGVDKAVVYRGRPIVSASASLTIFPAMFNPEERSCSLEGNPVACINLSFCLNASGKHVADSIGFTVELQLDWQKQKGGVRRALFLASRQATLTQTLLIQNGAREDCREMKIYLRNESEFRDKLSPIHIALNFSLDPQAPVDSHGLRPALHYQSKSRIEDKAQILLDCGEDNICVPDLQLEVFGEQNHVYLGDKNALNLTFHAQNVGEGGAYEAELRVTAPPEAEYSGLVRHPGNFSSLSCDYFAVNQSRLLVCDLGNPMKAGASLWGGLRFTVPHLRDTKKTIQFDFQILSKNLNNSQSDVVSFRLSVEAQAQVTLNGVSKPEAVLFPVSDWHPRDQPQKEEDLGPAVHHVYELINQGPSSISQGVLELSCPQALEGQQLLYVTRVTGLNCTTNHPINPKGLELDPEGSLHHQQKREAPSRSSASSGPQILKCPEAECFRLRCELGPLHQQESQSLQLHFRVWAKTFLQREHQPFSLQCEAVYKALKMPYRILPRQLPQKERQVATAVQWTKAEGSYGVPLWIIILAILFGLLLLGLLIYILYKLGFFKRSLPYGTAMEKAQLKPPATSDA
Sequence of integrin α5β1 on cells (P05556 21-798, chain 2 of 2): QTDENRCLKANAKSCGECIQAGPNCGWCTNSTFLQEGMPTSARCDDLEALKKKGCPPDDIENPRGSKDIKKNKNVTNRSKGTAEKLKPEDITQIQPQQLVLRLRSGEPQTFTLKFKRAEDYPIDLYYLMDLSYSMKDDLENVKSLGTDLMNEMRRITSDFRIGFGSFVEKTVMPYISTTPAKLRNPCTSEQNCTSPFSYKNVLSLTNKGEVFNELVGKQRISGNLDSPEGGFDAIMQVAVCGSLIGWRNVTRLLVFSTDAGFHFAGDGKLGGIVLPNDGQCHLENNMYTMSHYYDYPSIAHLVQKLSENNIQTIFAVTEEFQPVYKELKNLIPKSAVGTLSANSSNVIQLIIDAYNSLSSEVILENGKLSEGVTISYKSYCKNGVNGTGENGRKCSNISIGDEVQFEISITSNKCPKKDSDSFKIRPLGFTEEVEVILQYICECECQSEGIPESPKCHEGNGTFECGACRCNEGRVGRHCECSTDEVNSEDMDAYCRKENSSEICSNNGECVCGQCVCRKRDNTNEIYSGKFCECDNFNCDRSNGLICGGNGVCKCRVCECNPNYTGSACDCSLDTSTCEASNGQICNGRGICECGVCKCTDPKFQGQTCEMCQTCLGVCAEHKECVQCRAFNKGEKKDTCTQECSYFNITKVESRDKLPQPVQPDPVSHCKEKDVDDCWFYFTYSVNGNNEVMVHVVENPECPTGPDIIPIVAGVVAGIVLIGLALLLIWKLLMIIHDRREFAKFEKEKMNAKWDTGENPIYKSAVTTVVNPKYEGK

GRRGDGATGH [RGD peptide (GRRGDGATGH)]
Kd: 150 ± 20 µM

From paper PMC11230231 (bioRxiv, 2024)
